# Patent publication US20190177410A1
# Columns and labels:
# [1] = biological target: full-length human APLNR (hAPLNR) (human) (UniProt P35414); assay: FACS, secondary antibody alone (4 ug/mL) on HEK293/CRE-luc/hAPLNR cells
# [2] = biological target: T1, full length cynomolgus APLNR (MfAPLNR) (cynomolgus (Macaca fascicularis)); assay: FACS, secondary antibody alone (4 ug/mL) on HEK293/CRE-luc/MfAPLNR cells
# T1 sequence: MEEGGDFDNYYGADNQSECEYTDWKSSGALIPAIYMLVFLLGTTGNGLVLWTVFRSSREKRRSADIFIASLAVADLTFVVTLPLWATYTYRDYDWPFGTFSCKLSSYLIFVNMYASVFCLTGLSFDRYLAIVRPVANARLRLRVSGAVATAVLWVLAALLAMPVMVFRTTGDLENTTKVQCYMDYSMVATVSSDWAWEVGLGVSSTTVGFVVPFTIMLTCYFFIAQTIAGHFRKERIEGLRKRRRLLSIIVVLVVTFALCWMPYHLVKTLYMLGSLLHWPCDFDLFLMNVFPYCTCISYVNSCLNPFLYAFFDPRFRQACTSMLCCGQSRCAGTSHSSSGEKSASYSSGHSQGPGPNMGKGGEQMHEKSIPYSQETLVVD
# [3] = biological target: T1, full length cynomolgus APLNR (MfAPLNR) (cynomolgus (Macaca fascicularis)); assay: FACS, secondary antibody alone on HEK293/CRE-luc/MfAPLNR cells
# [4] = biological target: full-length human APLNR (hAPLNR) (human) (UniProt P35414); assay: FACS, secondary antibody alone on HEK293/CRE-luc/hAPLNR cells
Binding Ratio of Geom. Mean to Unstained Cells [1] [fold],Binding Ratio of Geom. Mean to Unstained Cells [2] [fold],Binding Ratio of Geom. Mean to Unstained Cells [3] [fold],Binding Ratio of Geom. Mean to Unstained Cells [4] [fold],Substance
4,3,,,anti-mouse IgG antibody conjugated with Alexa 647 (secondary antibody alone)
2,2,2,2,anti-human IgG antibody conjugated with Alexa 488 (secondary antibody alone)
